Laboratory results from PMC2855492.

Legend:
[1] = target: monkey FcRn (monkey (cynomolgus monkeys in the same paragraph)) (UniProt Q8SPV9)
[2] = target: human neonatal Fc receptor (FcRn) (human) (UniProt P55899)
[3] = target: monkey FcRn (monkey (cynomolgus monkeys in the same paragraph)) (UniProt Q8SPV9); remark: listed apart in the source
[4] = target: human neonatal Fc receptor (FcRn) (human) (UniProt P55899); test: SPR

Row | serum half-life in cynomolgus monkeys, 7.5 mg/kg i.v. [1] [days] | serum half-life in hFcRn mice (mFcRn-/-, hFcRn+), 2 mg/kg i.v. [2] [days] | serum half-life in cynomolgus monkeys, 4 mg/kg i.v. [3] [days] | fold improvement in FcRn affinity [4] [fold] | Substance
1 | 4.7 | 13.9 | – | – | Xtend-EGFR (humanized cetuximab huC225 IgG1 with the Fc substitutions M428L/N434S) (antibody)
2 | – | 12 | 31.1 | 11 | Xtend-VEGF (bevacizumab IgG1 with the Fc substitutions M428L/N434S) (antibody)
